Legend:
[1] = target: CD3 (as used for the BIACORE kinetics of Table 11) (UniProt P07766); assay: SPR (BIACORE)
[2] = target: CD3 on T-cells (UniProt P07766); assay: cell-based or functional assay
CD3 on T-cells, sequence (P07766 23-207): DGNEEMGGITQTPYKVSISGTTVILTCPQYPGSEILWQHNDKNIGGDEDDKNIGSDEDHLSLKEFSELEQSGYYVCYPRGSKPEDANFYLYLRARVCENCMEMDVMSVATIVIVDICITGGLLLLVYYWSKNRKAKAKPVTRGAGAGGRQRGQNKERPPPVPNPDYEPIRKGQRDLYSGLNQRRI

CD3 (as used for the BIACORE kinetics of Table 11), sequence (P07766 23-126): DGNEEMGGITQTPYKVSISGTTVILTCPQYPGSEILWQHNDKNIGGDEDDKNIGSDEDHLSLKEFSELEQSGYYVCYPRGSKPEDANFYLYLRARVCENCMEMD

Kd [1] [nM]	R (KD ratio to DART-A-WT) [1]	R (ka ratio to DART-A-WT) [1]	R (kd ratio to DART-A-WT) [1]	koff [1] [s⁻¹]	kon [1] [M⁻¹ s⁻¹]	EC50 of cytolysis at 18 hours (CTL assay, Pan-T-cells and MOLM-13, E:T = 5:1) [2] [ng/mL]	EC50 of cytolysis at 42 hours (CTL assay, Pan-T-cells and MOLM-13, E:T = 5:1) [2] [ng/mL]	R: ratio of 18 hour EC50 to DART-A-WT (CTL assay, Pan-T-cells and MOLM-13, E:T = 5:1) [2]	R: ratio of 42 hour EC50 to DART-A-WT (CTL assay, Pan-T-cells and MOLM-13, E:T = 5:1) [2]	Binder	max % CytoTox at 18 hours (CTL assay, Pan-T-cells and MOLM-13, E:T = 5:1) [2] [%]	max % CytoTox at 42 hours (CTL assay, Pan-T-cells and MOLM-13, E:T = 5:1) [2] [%]
25.7	3.1	1.6	5	0.0203	790000	0.176	0.011	2.2	3.9	DART-A-M4 (bispecific antibody) chain 1: DFVMTQSPDSLAVSLGERVTMSCKSSQSLLNSGNQKNYLTWYQQKPGQPPKLLIYWASTRESGVPDRFSGSGSGTDFTLTISSLQAEDVAVYYCQNDYSYPYTFGQGTKLEIKGGGSGGGGEVQLVESGGGLVQPGGSLRLSCAASGFTFSTYAMNWVRQAPGKGLEWVGRIRSKYNNYATYYADSVKDRFTISRDDSKNSLYLQMNSLKTEDTAVYYCVRHGNFGNSAVSWFAYWGQGTLVTVSSGGCGGGKVAALKEKVAALKEKVAALKEKVAALKE chain 2: QAVVTQEPSLTVSPGGTVTLTCRSSTGAVTTSNYANWVQQKPGQAPRGLIGGTNKRAPWTPARFSGSLLGGKAALTITGAQAEDEADYYCALWYSNLWVFGGGTKLTVLGGGGSGGGGEVQLVQSGAELKKPGASVKVSCKASGYTFTDYYMKWVRQAPGQGLEWIGDIIPSNGATFYNQKFKGRVTITVDKSTSTAYMELSSLRSEDTAVYYCARSHLLRASWFAYWGQGTLVTVSSGGCGGGEVAALEKEVAALEKEVAALEKEVAALEK	41.7	29.8
19.2	2.4	2.8	6.5	0.0267	1.39e+06	0.223	0.016	2.8	5.8	DART-A-M11 (bispecific antibody) chain 1: DFVMTQSPDSLAVSLGERVTMSCKSSQSLLNSGNQKNYLTWYQQKPGQPPKLLIYWASTRESGVPDRFSGSGSGTDFTLTISSLQAEDVAVYYCQNDYSYPYTFGQGTKLEIKGGGSGGGGEVQLVESGGGLVQPGGSLRLSCAASGFTFSTYAMNWVRQAPGKGLEWVGRIRSKYNNYATYYADSVKDRFTISRDDSKNSLYLQMNSLKTEDTAVYYCVRHGNFGNSYVSFFAYWGQGTLVTVSSGGCGGGKVAALKEKVAALKEKVAALKEKVAALKE chain 2: QAVVTQEPSLTVSPGGTVTLTCRSSTGAVTTSNYANWVQQKPGQAPRGLIGGTNKRAPWTPARFSGSLLGGKAALTITGAQAEDEADYYCALWYSNLWVFGGGTKLTVLGGGGSGGGGEVQLVQSGAELKKPGASVKVSCKASGYTFTDYYMKWVRQAPGQGLEWIGDIIPSNGATFYNQKFKGRVTITVDKSTSTAYMELSSLRSEDTAVYYCARSHLLRASWFAYWGQGTLVTVSSGGCGGGEVAALEKEVAALEKEVAALEKEVAALEK	48.5	32.4

Source: patent US20240043537A1
